Measurements reported in the DeepSol protein solubility set.

Assay: soluble on expression in E. coli; label from the status in PepcDB or PDB records

| Sequence | soluble on expression in E. coli |
| --- | --- |
| MKLKNTLLASALLSAAAFSVHAATELTPEQAAALKPYDRIVITGRFNAIGDAVSAVSRRADKEGAASFYVVDTSEFGNSGNWRVVADVYKADAPKADAPKNRVINGIVELPKDQAVQLEPYDTVTVQGFYRSQPEVNDAITKAAKQKGAYAFYIVRQIDANQGGNQRITAFIYKQDAKKRIVQSPDAIPADSEAGRAALAQGGEAAKKVEIPGVATSASPSAEVGRFFETQSSKGGRYTVTLPDGTKVEELNKATAAMMVPFDSVKFTGNYGNMTEISYQVAKRAAKKGAKYYHITRQWQERGNNITISADLYKLEHHHHHH | soluble |
| KQQKDGSWLMDALIPLNELKYKLGLTTIEGEESEGFQTLNGFLTWWLGRLPHAGELVDYEGWQFEVLNVKHHRIVQVKVSRETESETTTDTNDGDANP | not soluble |
| MGSDKIHHHHHHMPSVFQLQALCAAVEKPSLRQAAEALCKTQPALTHALKQLESQLGLPLFNRDGYRLVLTGSGERIYQLALKTLESHAELEQLAQHLARGDEDRVVLTVEASFDLTPILSALESVQAEFSQTEIVIQQEYLTGAVERVQQGHANLAITPLAPALSPGTRLDTQPLSQGQMLNVAAPRLLARYPSLCSILELRKEYQILVQDSGSGTLGLKLGVQSAQRHWYVNSFATKLSLIEQGMGWGRLPEWMLTEALAAGRLQLLELADFPARQRFDYHLVRRSASVPGPVATRLWQRLGGGAL | not soluble |
| MGSDKIHHHHHHMARTVVVGLGRSGIGAARLLQAEGHQVTVLERSIEPHLQSLAADLRLQGIAVELGKPLELNSFIPLLDQLDAVVISPGIAWDHPTLTALRQRGIDIDGEMAVAWRSLSHLPWIAITGTNGKTTVTHLLNHVLESNGLRAPMGGNVGHAAAEVALKWRQPNAQRPDWLVMELSSYQIEAAPEIAPRMGIWTNLTPDHLERHGTLDAYRTIKRGLLERSEIRIFNGDDPDLRSQRSSWDKGLWVSSEGPGTANHRADFWIDAEGLVREPQGALFAASALAMPGQHNLQNLLLVTAAARQTGLPAKAIEASLRSFPGVPHRLEQLGHIQQMSVYNDSKATNYDAACVGLKAVPPPAVVLAGGQTKQGDASGWLKQLDQNACAVILFGAGASELQELIKTSGFSGELHCCSNLNAAVTLAIPLGVERQAACLLLSPACASFDQYQDFEARGEHFRSLISSHLTA | not soluble |
| MAHHHHHHMNDDNTLALLYEGINLIFDKWTILRLAVTNNWGGINSEDKKKKLIEYVHNFVTNNNAKNKLCDYLRDEMSVLFNVDIEDHSDIEIADLILDLYQNLKKKNYDILEKIKNIQIYDISCSQEKNLIQNYEQGDEENMEDEYSSSNYSEYSNEESLDKE | soluble |
| NTDYYGLDYALSFNQVEIEEKRIVIAGSGGIARTVIRYMLDHGAHRVDVLTRNAQNARRNLDIPGIGLHENIDEDYDIYVNCTPLGTLGDGDPFSTVDFRSGRTGIDLVYNPPDTPFLKRMRNAGGRTVSGLDVFIGQGLRTLELVFGIRPDSIFREYAVEALNEIR | not soluble |
| MSLKISSMFTPIRIGSMTVPNRFVVPPMGNNFANTDGTLSETSKAYYLERALGGFGLITIESSVVDKKAKGGPRKPCLYDDSTIDSFKNVIDACHDAGSKVSIQLQHAGSEGNEKVAGHPLKAASAIPASNGRNTPLAITTEEIYELIESYGDAALRAQKAGADAVEVHCAHGYLVSSFISQRTNKRVDEFGGCFENRMRLPRLIIENIRKKVGNSLAILCRINSTDDVPGGIDVHDSSVIAAYLEDCGIDGLHVSRSIHIHDEYMWAPTTLHAGFSAELVTEIKKAVSIPVITVGRYTEPQFAELMVRQGRCDLVAFGRQSLADPEMPNKAKNGKLDEMIPCIACLQGCVPNMFQGKPIACLANPILGHEAELKPAEISKEVLVVGGGVGGMLAAWVCAKRGHNVTLVEKSEVLGGQMRLAAYPPGKGDITNLVRSYISKCNQYGVKICTNTEATVELIKEKSPDVVIIATGATPLVLPIPGINDSGLIHAVDLLDGKKSCGKKVLVVGGGMVGCEVAAFLGEQEHEVTVIELREEVGADVISEHRKFLMNDFENYNIHTITGAKVSKFYDDGVDYLLTDGTEHDLKGFDSVVLAMGSRNYDPLSEVIKEVVKETYIVGDAVKARRALDATKEAFEVALNIEGHHHHHH | soluble |
| MGSDKIHHHHHHMEQRKRRLPPLKSLLFLESVVRNQSVTAAADELSITHSAVSKQLSQLEVWIGQPLFLEKRKGMIPTAEIGRVAAVLGNAFDEIQDALDELHPKRAAKPPVLRVIAPATLAMRWLIPKLGEFHTSAGETDVMVRPTHTPDNWLEMEFDIAIRRGGLIPPQFLPQSLFAETLSLVATARVAESYRMGQGDQLSQIGLIDVSTRHGELMNWLKLAGLPVAMARQATKLPHFYIALDAMFAGRGALVVPTYLIEDQLSRGELVELFPQSRIQGPSYQVFVNPASGAGNLAKGFVDWIKRAIPSVAQYAETR | not soluble |
| MSLSKSDDGDSEESFSISVQSGFEAMSQELCIVMCLKDLTSIVDIKTSSRPAMIGSLTDGSTETFWESGDEDKNKTKNITINCVKGINARYVSVHVDNSRDLGNKVTSMTFLTGKAVEELCRIKQVDLDSRHIGWVTSELPGGDNQIIKIELKGPENTLRVRQVKVLGWKDGESTKIAGQISASVAQQRSCEAETLRVFRLITSQVFGKLISGDAEPTPEQEEKALLSSPEGEEKATSDADLKEHMVGIIFSRSKLTNLQKQVCAHIVQAIRMEATRVREEWEHAISSKENANSQPSDEDASSDAYCFELLSMVLALSGSNVGRQYLAQQLTLLQDLFSLLHTASPRVQRQVTSLLRRVLPEVTPNRLASIIGVKSLPPADISDIIHSTEKGDWNKLGILDMFLGCIAKALTVQLKAKGTTITGTAGTTVGKGVTTVTLPMIFNSSYLRRGESHWWMKGSTPTQISEIIIRLIKDMAAGHLSEAWSRVTKNAIAETIIALTKMEEEFRSPVRCIATTRLWLALASLCVLDQDHVDRLSSGRWMGKDGQQKQMPMCDNHDDGETAAIILCNICGNLCTDCDRFLHLHRRTKTHQRQVFKEEEEAIKVDLHEGCGRTKLFWLMALADSKTMKAMVEFREHTGKPTTSSSEACRFCGSRSGTELSAVGSVCSDADCQEYAKIACSKTHPCGHPCGGVRNEEHCLPCLHGCDKSATTLKQDADDMCMICFTEALSAAPAIQLDCSHVFHLQCCRRVLENRWLGPRITFGFISCPICKNKINHIVLKDLLDPIKELYEDVRRKALMRLEYEGLHKSEAITTEGHHHHHH | not soluble |
| MVVISVIAIVLLLVYLDDKLGQFIFRNGRKTVVYPERRSDISLYINGRHLFSDYFAELGRARDHIHVLFYIIKNDETSAPFFQILKEKAAAGVKVRVLTDWVGSFGLPKALIRSLEESGVEFAYARKPRFPFFIYRLNRRNHRKITVIDGRVGYIGGFNIGREYNGKDANFGEWRDYHLKVNGEGVHDLQEQFLHDWEEATGRTVPDKHRYFPPLPAGAIRHQLVATNGAALEEQFIEVIRQAKKEIMIGSPYFIPSRPLFNELMQALRRGVRVTVLVPLKADHLFVKEAAYPYFYRLLKAGARIYRFYQGFYHAKTLVIDEEWCDVGTANFDRRSLFLNGEINCYVFDRGFTRLVKRAIERDLLRRRAADGRLLAKTFAS | not soluble |
| MNQINIEIAYAFPERYYLKSFQVDEGITVQTAITQSGILSQFPEIDLSTNKIGIFSRPIKLTDVLKEGDRIEIYRPLLADPKEIRRKRAAEQAAAKDKEKGA | soluble |
| MGRGVYTLALRGLAPLIWLWMWRRARRAGGQWELFAPARFGRAGARAPAPLAAPVWVHAVSLGETRAAQPLVQALLERGLPVLLTHTTATGRAEGERLFGAAIGRGQLQQAWLPYDFPGATRRFLARHAPRCGLLIEREVWPNLLAAARAQGVPMALVSARFSASSLRQAGWLGQALREALAGLGRVLAQTDEDGARLCQAGANAYTVTGSLKFDVALPEAQLRVGHAWAGATGRPVIALASTREGEDAMFIEAIGALQAHRAATPRPLILLIPRHPQRFDEAAAQLQAAGLAYARRSAGSGEPGPHIDVLLGDTLGEMPFYYAAADVAIVGGSFARLGGQNLIEACAAGTPVIVGPHTFNFKDAARDAIAAGAALRAPDARTALDWALQLLAEPARRQAMSEAARAWTAAHAGATRRTLDALEDWLAPRLEHHHHHH | soluble |
| MAHHHHHHMQAAAPGQTLSSALRFWADVSYGDAPPAALIDYPPLGFEEDSSRLTVGALQASRDAAAADSRRQLGLKTQRASEDVDGSAHPALLLGVKEESSTLAVTREELEGEEGPAWLQPPLLLQLDDGLEDRQFAAATTTGRTAPVPHLRYDGAGLLAVMHVHSSGIAYVGYPRASDTVSSAEPTDGLVRLPDNVPPADPLAVAAPTPAPICSLPMSSSTGFVRGLLGLS | not soluble |
| GPGSMEWSSQSALPGVEGSPGYGRLCSATSGGVGAFQQFSPATAATVGDTTSVPTEAPSSVSITVGEAMDGVALQCERRGLTNAATWLSEMSLHALPSLLATPLQACSYGGHGGNSLFSPLHRAIHLDSGVFGDHAIAGGVRSTPSAGWQRLHRVALGYFIKGEYQRCHHLILREVMRNTAVGSSCGVPLPSTTQRTWPMPAGEVPDNEGGLSLPLPEVVRGFRTTTLPPLLQFLSLYALFMDGVKAKQLSNNASQGGGAESSSMGRGGQQRALHPHARVLRAYLLEAMRNPVNMLNLPSSNNSDPEPQHGDGGDDGAALHVAVGGALPGAHHTSSAKRPWTTSSAVWLASRAVSAATTTGTAAVMTAGASASRPRGNKAGQLHARYSLPLHCCLVCLLERLSSRLSSRESSGSARRRIGSGTYVGLVAYRSVPVVAHGCSAAGTSHAPGKCDVSAGGGECQPTTAVRLGRPRVPRES | not soluble |
| MQDIPQETLSETTKAEQSAKVDLWEFDLTAIGGERFFFCNEPNEKGEPLTWQGRQYEPYPIQVQDFEMNGKGASPRPNLVVANLFGLVTGMAEDLQSLVGASVVRHQVYSKFLDAVNFSNGNPDADPEQEAVARYNVEQLSELDSSTATIILASPAETDGSVVPGRTMLADSCPWDYRDENCGYDGPPVADEFDKPTSDPKKDKCSHCMKGCEMRNNLVNAGFFASINKLS | not soluble |
| MAHHTKETMELIKELVSIPSPSGNTAKIINFIENYVSEWNVETKRNNKGALILTVKGKNDAQHRLLTAHVDTLGAMVKEIKPDGRLSLSMIGGFRWNSVEGEYCEIETSSGKTYTGTILMHQTSVHVYKDAGEAKRDEKNIEVRIDERVFSADEVRELGIEVGDFVSFDPRVQITESGYIKSRHLDDKVSVAILLKLIKRLQDENVTLPYTTHFLISNNEEIGYGGNSNIPEETVEYLAVDMGALGDGQASDEYTVSICAKDSSGPYHYALRKHLVELAKTNHIEYKVDIYPYYGSDASAAIRAGFDVKHALIGAGIDSSHAFERTHESSIAHTEALVYAYVMSNLIEE | soluble |
| MITMKISSRFSIAVHILSILKNNPSSLCTSDYMAESVNTNPVVIRKIMSYLKQAGFVYVNRGPGGAGLLKDLHEITLLDVYHAVNVVEEDKLFHIHEQPNPDCPIGANIQAVLEIILIQAQSAMEEVLRNITMGQLFETLQEKMNA | soluble |
| MSLKPVMIIQFSASEGPGHFGDFLAGEHIPFQVLRMDRSDPLPAEIRDCSGLAMMGGPMSANDDLPWMPTLLALIRDAVAQRVPVIGHCLGGQLLAKAMGGEVTDSPHAEIGWVRAWPQHVPQALEWLGTWDELELFEWHYQTFSIPPGAVHILRSEHCANQAYVLDDLHIGFQCHIEMQAHMVREWCSISPEELKGGAEADEGHHHHHH | not soluble |
| MKIVEALKANGVEVIITEKADVLIKNFENAHISYALSADEKTGVIFFGGFEEKMKAGLAEHHVAILKEEDVKENILLAYEHARRKSDVLFASSSASKTADIEGKTVFGMHGPRKFTVVLVVRK | not soluble |
